According to the supplement of paper PMC9170038:

Tested on: MS2 coat protein
Assay: apparent KD of MS2 coat protein; designed switch direction (-1 OFF switch, 1 ON switch): -1; higher = weaker reporter binding
Summary of the method: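 Three titration conditions were used: no input, 200 uM small-molecule ligand, and an oligonucleotide input. In each, SNAP-549-labelled MS2 coat protein was raised from 0.7 or 1.5 nM, doubling, to 3 µM over designed RNA switches transcribed on Illumina chips by stalled E. coli RNA polymerase. Curve fits of normalised cluster fluorescence gave values whose per-design median over clusters is the apparent KD.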

[1] = input ligand: microRNA oligo, concentration not stated
[2] = Eterna round: R95, input ligand: FMN 200 uM
[3] = Eterna round: R95, input ligand: microRNA oligo, concentration not stated
[4] = Eterna round: R95, input ligand: none

Sequence | apparent KD of MS2 coat protein (input ligand: FMN 200 uM) [nM] | apparent KD of MS2 coat protein [1] [nM] | apparent KD of MS2 coat protein (input ligand: none) [nM] | apparent KD of MS2 coat protein [2] [nM] | apparent KD of MS2 coat protein [3] [nM] | apparent KD of MS2 coat protein [4] [nM]
AACCUGAGGCAAAGCUUUAGGUGUACAUGAGGAUCACCCAUGUAGGAUAUGGUAAGCAAAGCUUACCAGAAGGACAUAAUGAUA [Mat - Exclusion NG 3 - Mod of JL - D49] (Eterna round: R96, puzzle: Exclusion NG 3) | 86.5 | 37.6 | 59.4 | – | – | –
AACCUGAGGCUUUGCUUUAGGUGUACAUGAGGAUCACCCAUGUAGGAUAUGGUAGGCUUUGCUUACCAGAAGGACAUUAUGAUG [JL ENG3 1.17] (Eterna round: R96, puzzle: Exclusion NG 3) | 75.1 | 44.3 | 52.8 | – | – | –
AACUAAACAUGAGGAUAUGCCUGGGAAGAACAGGCAGAAGGCGUGACAUGAGGAUCACCCAUGUAGCCGGGCUAUUCUCAUGCG [Cediceor] (Eterna round: R96, puzzle: Exclusion NG 1) | 25.3 | 26.1 | 31.3 | – | – | –
AACUCACGUUCAGGAUAUCGCGUUCCAAAGACAUGAGAAGGGAACAUGAGGAUCACCCAUGUGCCCGGUCUCAGACCGGGCUUC [Cetein] (Eterna round: R96, puzzle: Exclusion NG 1) | 328 | 76 | 88.8 | – | – | –
AACUCUGAGAAGGAUAUGGUACGGGAAAUGGUACCAGAAGGUUUCACAUGAGGAUCACCCAUGUCGAAUAGUGA [EX6 #68] (Eterna round: R97, puzzle: Exclusion 6) | 28.8 | – | 27.4 | – | – | –
AACUCUGAGAAGGAUAUUGUACGGGAAAUGGUACAAGAAGGUUUCACAUGAGGAUCACCCAUGUCGAAUAGUGA [EX6 #69] (Eterna round: R97, puzzle: Exclusion 6) | 34.7 | – | 22.9 | – | – | –
AAGAAACAUGAGGAUCACCCAUGUCAGGAUAUCCGAAAAGAAAAGAAAAGAAAAGAAAGGAGAAGGGACAAAAG [Default title] (puzzle: Exclusion 1) | – | – | – | 40.7 | 26.6 | 76
AAGAAACAUGAGGAUCACCCAUGUCAGGAUAUCUCGAAAAGCAUAGAAAUAUGCGAAGAGAGAAGGGACAAGAA [ChP Ext 10-04-2015] (puzzle: Exclusion 1) | – | – | – | – | 56.1 | –
AAGAAACAUGAGGAUCACCCAUGUGAGGAUAUGACCAAGAAAAGAAAAGAAAGAAGAAUCAGAAGGCACAAAGG [salish99-ex1_r3_051] (puzzle: Exclusion 1) | – | – | – | 47.7 | 47.2 | 70.2
AAGAAACAUGAGGAUCACCCAUGUGAGGAUAUGACGAAGAAAAGAAAAGAAAGAAGAAUCAGAAGGCACAAAGG [salish99-ex1_r3_052] (puzzle: Exclusion 1) | – | – | – | 64.1 | 40.8 | 51.6
AAGAAACAUGAGGAUCACCCAUGUGAGGAUAUGACGAAGAAAAGAAAAGAAAGAAGAGUCAGAAGGCACAAAGG [salish99-ex1_r3_067] (puzzle: Exclusion 1) | – | – | – | 132 | 100 | 109
AAGAAACAUGAGGAUCACCCAUGUGAGGAUAUGAUGAAGAAAAGAAAAGAAAGAAGACUCAGAAGGCACAAAGG [salish99-ex1_r3_070] (puzzle: Exclusion 1) | – | – | – | 77.1 | 45.3 | 47.4
AAGAAACAUGAGGAUCACCCAUGUGAGGAUAUGAUUAAGAAAAGAAAAGAAAGAAGACUCAGAAGGCACAAAGG [salish99-ex1_r3_069] (puzzle: Exclusion 1) | – | – | – | 55.5 | 80.9 | 45.5
AAGAAACAUGAGGAUCACCCAUGUGAGGAUAUGUAAAAUAAAAUAAAAGAAAUAAUAAACAGAAGGCACAAAGG [Mat - Mod of Hog D16] (puzzle: Exclusion 1) | – | – | – | 47.2 | 29.8 | 41.8
AAGAAACGAGGAUAUACAGUUGAGUGAGAGAGGGAAGUGUGACAUGAGGAUCACCCAUGUAGAAGGCGUGAGAG [JR_Exclu2_Sub087] (puzzle: Exclusion 2) | – | – | – | 49.1 | 40.4 | 76.8
AAGAAACGAGGAUAUACAGUUGAGUGAGAGAGGGAAGUGUUACAUGAGGAUCACCCAUGUAGAAGGCGUGAGAG [JR_Exclu2_Sub088] (puzzle: Exclusion 2) | – | – | – | 32.9 | 31.4 | 33.6
AAGAAGAGGUGAGGAUAUCGAAGUACAGGCUGGGACUCGGACUACAUGAGGAUCACCCAUGUAUACGAGAAGGCACUUCGAUAA [Quusatrare] (Eterna round: R96, puzzle: Exclusion NG 2) | 12.6 | 12 | 14.7 | – | – | –
AAGAAGCUAGGAUAUACAUGAGGAUCACCCAUGUCUCCAUGGUUGACGAGUUCCGCACGUAGAAGGAGCAAAAC [Aerdidima] (Eterna round: R97, puzzle: Exclusion 3) | 225 | – | 56.7 | – | – | –
AAGACCUUUGUCAGGAUAUCAAGGCAAUUCGCCGGUGAGAAGGGACAUGAGGAUCACCCAUGUAAAGAAAAGAA [Rausedlave] (puzzle: Brourd's mod of Exclusion 4) | – | – | – | 69 | 20.1 | 19.7
AAGAGAGCAGGAUAUCGGUUUUGCGACAUGAGGAUCACCCAUGUGAGCCGAGUCCAACGCCGAGAAGGGCUAAAAU [Onesis] (puzzle: Exclusion 5) | – | – | – | – | 53.3 | –
AAGAGGAUUACAGGAUAUGAAGCUAAAACGGCGUUAGAAGGGUAUACAGAGUUACAUGAGGAUCACCCAUGUUGUGAUUUCUAA [AK ExNG1-V2-4.2] (Eterna round: R96, puzzle: Exclusion NG 1) | 48.4 | 38.4 | 49.2 | – | – | –
AAGAGGUCAGGAUAUACGGGAAGAGGGAGAAGUAGAGGGUAACAUGAGGAUCACCCAUGUAGAAGGGACUAAGA [JR_Exclu2_Sub073] (puzzle: Exclusion 2) | – | – | – | 26.7 | 26.4 | 28.1
AAGAGUAGAGGAUAUUGUUUAUGGCACAUGAGGAUCACCCAUGUAGCGAGAGUGGUGCCACAAGAAGGUUGCAUGA [Eternabot (L2) Solution 71] (Eterna round: R97, puzzle: Exclusion 5) | 42.3 | – | 52.5 | – | – | –
